Target: the molecule itself
Assay: SEC-MALS; SEC-MALLS, three-detector method; Superose 6 column in 20 mM HEPES pH 7.0, 100 mM NaCl, 5% glycerol, 0.0102% DMNPG; 30 ul of MsGabP at 3 mg/ml injected; protein-detergent complex

B1: γ-aminobutyric acid (GABA) permease GabP from Mycobacterium smegmatis MC^2 155 (natural protein, UniProt A0R5H8 1-473, looked up)
chain: MLESRSDLSSSDEPRSGLARSLKTRHMTMIAIGGAIGAGLFVGSGAVIKTAGPAAIVSYVVAGALVLCTLRMLGEMVVAKPRTGAFADYARIGIGPWAGFTLGWLYWYYYVIIIAVEAVAGAQILAVWVGLPLWLMAMLLMAALTLTNLISVRWFGEFEFWFSGIKVAAIVSFIVVGLLWVFGVWPGDTNGLTNLVAHGGFAPNGFGSIFGAVVVVIFAFGGAEIVTIAAAESAEPAKSVARATTGVIWRIILFYVGSIFLVVCILPWNDASVLSSPYVAALEKLQIPGAGLIMNIVILTAVLSVLNSSIYTSSRMLRVLASHGDAPQWLVRTNTRGVPTRAILASTVVGWVSVVLAYIAPDSLFLFLVNSCGVVAIFMYVMIGVSELRVRRAIEREDPAKLTLKMWFFPYLPIAVIACFVLVLVAMLFDADQRVQLLASVVSLAVVLLAYALRKRHGQVPATDTKQAARTDE
notes: GABA permease GabP, Mycobacterium smegmatis MC^2 155, gene msmeg_6196, amplified from genomic DNA and cloned NheI/SbfI into pL33 (based on pTTQ18); predicted molecular mass 50.7 kDa; pL33 encodes a C-terminal His tag preceded by an HRV-3C protease site; the tag was cleaved on the column, so residues of the cleavage site and of the cloning sites may remain; also called MsGabP; gene product of …
stoichiometry N: 2
